Values of other authors in article PMC7990104.
Read-outs that look alike come from different tables or passages of the source.

Tests used:
[1] = target: PYL3 (Arabidopsis thaliana) (UniProt Q9SSM7)
[2] = target: PYL3 (Arabidopsis thaliana) (UniProt Q9SSM7); remark: listed apart in the source

Kd [1]: 7.76 µM
Kd [2]: 52 µM
Substance: PYL3 (from UniProt Q9SSM7)
